Source: the RNAGym collection of RNA variant scans (doi:10.1073/pnas.2313332121)
This sample holds only a part of the variants without activity.

B1: TPR 5TU (parent)
chain: GGAUCUUCUCGAUCUAACAAAAAAGACAAAUCUGCCACAAAGCUUGAGAGCAUCUUCGGAUGCAGAGGCGGCAGCCUUCGGUGGCGCGAUAGCGCCAACGUUCUCAACUAUGACACGCAAAACGCGUGCUCCGUUGAAUGGAGUUUAUCAUG

Variants of: B1
Assay: polymerase ribozyme fitness, log enrichment relative to wild type (log ratio); higher = more active; in vitro selection for triplet polymerase activity
Method in brief: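 Fitness measures genotype enrichment against wild-type enrichment on a logarithmic scale, with inverse-variance-weighted averaging of replicates. The logarithm is base 2, and genotypes were kept only with ≥10 input reads and ≥1 read per output in Illumina sequencing. The sequenced libraries came from one triplicate in vitro selection round, including frozen incubation at −7 °C, of PCR-built, transcribed mutant libraries of each subunit of a heterodimeric triplet polymerase ribozyme.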

Variant | polymerase ribozyme fitness (log ratio)
G68U G136A | -3.9
G62U U145G | -0.51
C63U A150U | 0.854
G74A A91C A115U G141A A147C U148G | ≤ -4.2
G68A C87G G128U | ≤ -4.2
C69G C96U A142C | -2.43
C75U G84U U134C | -1.39
C75U G83C | -1.13
G67U C79G | ≤ -4.2
G70C G94C | -3.44
G67C U101A G141U A150U G152U | ≤ -4.2
C63A G83A U145C A150U | -0.965
A73U U82A C95U | -1.04
G67A G74C G94A A119G | ≤ -4.2
C63G C72U C93U | -0.337
C72U A91U A106C A115G A119U G143A U145G U151G | ≤ -4.2
G74A A122G | -3.39
G71C U102G G133C G141C | ≤ -4.2
G74A G141A | -2.42
A73G A119C | -0.028
G68A C75A U77A C95A A97G | ≤ -4.2
C75G C96U | -3.61
C75G C96A | -3.52
C69G C75G | -2.12

Variant | polymerase ribozyme fitness (log ratio)
A66U G88A U109A A122C | ≤ -4.2
C69U G83U | -0.933
C69U G83A | -3.04
G68C A89G G94A A113U | ≤ -4.2
G74C C116G A150U | ≤ -4.2
A66C A91G A98U C131A U139A | ≤ -4.2
C75A A89U G143C | ≤ -4.2
A64U C87A C95U U139A | ≤ -4.2
C69A G70C | -3.18
C75G C76U A97U G141C | ≤ -4.2
G68A G83A C116U | ≤ -4.2
C69A C85U C123A | -2.37
G67A C99U A107U G143C | ≤ -4.2
A73U C85A A147C | -2.75
A73G C95G C96U G124U C149U G152A | ≤ -4.2
G70C A97G | -3.97
G67A C87U | -4.13
C69A A121G | -1.74
A73U C87U G92A | 0.224
C63U G70C C87G A89G C96A G126C | ≤ -4.2
C75A U90C C95U A107G U127G G141C | ≤ -4.2
G68U A91G | ≤ -4.2
A73C C85A A110C A119U G136U | ≤ -4.2
A73G C93U G152A | -2.84

Variant | polymerase ribozyme fitness (log ratio)
C69A A115U | -2.49
A73U A122G | -0.995
C72G G83A G100A | ≤ -4.2
C63U C99U C116A | 0.561
G67C G92U C99U A107U U148A | ≤ -4.2
A73G G143A | -0.82
A73G U134C | 0.53
A73G G80U G94U U102C U127C | ≤ -4.2
C75U A91G C99U | -3.56
G74C G83A C95U G136A | ≤ -4.2
C72U A98U | 0.351
C69U C87A | ≤ -4.2
G68A C87G U104G | ≤ -4.2
G74A A115C | -3.73
C69U C85G C149U | -2.74
G65A A89U G94U | -2.57
G65A C114A | -3.39
G68A G84U C131G G143U | ≤ -4.2
C69G A121U | -2.04
G74A C85A U90C G141A U148C | ≤ -4.2
G68A A119U A122U U148A | ≤ -4.2
A73U C96U G112A | ≤ -4.2
C63U A122U | 0.751
A66U C93U | ≤ -4.2

Variant | polymerase ribozyme fitness (log ratio)
C63G G81U G92A G117C C118U G143U | ≤ -4.2
G68A U130C | -3.95
A64C G83C G141A | ≤ -4.2
A73U A91U A106C G136C | ≤ -4.2
C75U A142C | -1.32
A73U C108A A110C G133A | ≤ -4.2
A73U G126U | -0.661
C75G G84A A107U A121U U151C | ≤ -4.2
C63U C75A G86A A89U A106U U134G | ≤ -4.2
A73G G94A U148C | -3.66
C69U G84A A115G G117U G136C | ≤ -4.2
A64G | -2.27
A64U | -3.99
A64C | ≤ -4.2
C69U C93U | -2.33
A66G C96U | -3.66
C75G C87A | -3.89
A73G C96U | -0.103
G70C G83A C87U G117C | -3.9
A73G G83C | -2.56
C72U A89G C95A | -1.39
G70U G92U A98G A147C | ≤ -4.2
A73U G83C C123G | -2.93
G67U C87G U130A | ≤ -4.2

Variant | polymerase ribozyme fitness (log ratio)
C69U C85U | -1.39
G67A A89G G92C C93A C116U A122C U127C | ≤ -4.2
C69A C93U U102G A113U G117U U146A C149U | ≤ -4.2
C75G G84U | ≤ -4.2
G68C C93U A113U | ≤ -4.2
A66G G84A G141C | ≤ -4.2
C72U G124A U146G | -1.3
A66U G94A G100U U148G | ≤ -4.2
G71U A89U C95A | -3.94
C72A A73U C85G A138C U148C | ≤ -4.2
A73G G92A C132U G141C | ≤ -4.2
G68A C72A G80C G94A | ≤ -4.2
A73G A98G | 0.461
G68A A91U A107C A110G G141A | ≤ -4.2
C75U A107G A142G | ≤ -4.2
C72G C99U U101G A142U | ≤ -4.2
G71U G80C C95U U127A | -3.97
G70A C85G | ≤ -4.2
G70A C85U | -3.46
A73C G141A | -3.8
G68A C75A G128A A150C | ≤ -4.2
G71C C116U | -2.51
C72G C93G C95U C118G A138C U145A | ≤ -4.2
G70U C131U A137G | -4.05

Variant | polymerase ribozyme fitness (log ratio)
G65A G74C G140U A147G | ≤ -4.2
G68A C93A C108A G143U | ≤ -4.2
A73G C85U U102G G124A | ≤ -4.2
A73C G92C | -3.64
C63U C69A G80A C85U G94C C99A | -3.32
C69U C96A | -1.12
G71A G88A | ≤ -4.2
C72G U101G | ≤ -4.2
C69U G86U C114U G141U | ≤ -4.2
C72G C99G U139A | ≤ -4.2
C69A A120C | -1.7
G68A A106C | -4.13
G70A C93A C103G | ≤ -4.2
C75G U77G G80C A97U G124A | ≤ -4.2
G74C A147C | -4.06
A73U G84A | -2.32
G65A C85U A137U U139A G140A G152A | -3.3
A73C U77C C93U | ≤ -4.2
A66G C85A A91G U148A | ≤ -4.2
C72A C93G C95G | ≤ -4.2
G68C C99G | ≤ -4.2
A73G A91U | ≤ -4.2
A66G C85U | -3.45
C75G U78G A115G | ≤ -4.2

Variant | polymerase ribozyme fitness (log ratio)
G68A G94C | -4.03
C72U A73C A98G C118A G124C U135C U139A | ≤ -4.2
C75U G92C U109A U146G | -3.93
G68C G83C | ≤ -4.2
C63U C85U C95U C149U | -1.91
A73G A142G | -1.38
G74U C96A C118U | -3.97
G68C G136U A142G | ≤ -4.2
A73C A142C | ≤ -4.2
C63U C75A G84A C118G A120G | ≤ -4.2
A66U G86U C103A A142G | ≤ -4.2
C75A U144G | ≤ -4.2
C72U C93U U111C A119U A142G | ≤ -4.2
C69U A98U | -1.15
C72U A73U G83A | -2.51
C72G A91G C99G U144A | ≤ -4.2
G70C G80A A91U U104C A120U | ≤ -4.2
G68U C129U | ≤ -4.2
A66G C85U G86U | ≤ -4.2
C69U C87U G92C A150G | -3.27
C69U C116U U135A G136U | -4.18
C75G C93A A113U A142G | -4.17
G67U G117A U151A | ≤ -4.2
